Blank lines part the entries; values can stand above or below the binder they belong to.
What was measured:
[1] = molecular target: T1, human FcγRIIIa, 158V (high affinity), full length on stably transfected CHO cells (human, UniProt P08637 17-254); experiment: cell-based competition binding, flow cytometry (LSRII): serial dilutions of unlabelled competitor against 100 nM Alexa Fluor 488-labelled h1F6 IgG1 on CHO cells expressing human FcγRIIIa 158V
T1 construct: whole, on cells; CHO DG44 line '158V'; also called CD16
Method: (§1) Labeled cells were detected using an LSRII FACS analyzer.
(§2) Binding of variant humanized anti-CD70 (h1F6) antibodies to CHO cells expressing full-length FcγRIIIa was also determined by competition binding. […] Labeled cells were detected using an LSRII FACS analyzer.

[2] = molecular target: T2, human FcγRI, full length on stably transfected CHO cells (human, UniProt P12314 16-374); experiment: cell-based competition binding, flow cytometry (LSRII): serial dilutions of unlabelled competitor against 50 nM Alexa Fluor 488-labelled h1F6 IgG1 on CHO cells expressing human FcγRI
T2 construct: whole, on cells; also called CD64; Fcγ receptor I
Method: as §1
(§3) Binding of humanized anti-CD70 (h1F6) antibody to CHO cells expressing full-length FcγRI was determined by competition binding. […] Labeled cells were detected using an LSRII FACS analyzer.

[3] = molecular target: T3, mouse CD70 (the corresponding antigen from mice) (mouse, UniProt O55237 45-195, limits assumed); experiment: not described (statement in the example on maximum tolerated dose)
T3 construct: Named only as 'the corresponding antigen from mice'
T3 sequence (looked up): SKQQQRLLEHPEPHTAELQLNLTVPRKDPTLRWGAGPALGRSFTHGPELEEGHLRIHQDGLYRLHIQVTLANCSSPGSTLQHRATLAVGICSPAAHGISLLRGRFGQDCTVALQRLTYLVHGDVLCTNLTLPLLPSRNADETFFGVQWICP

[4] = molecular target: T1, human FcγRIIIa, 158V (high affinity), …; experiment: cell-based competition binding on CHO cells expressing full-length FcγRIIIa, 'performed as described previously' (158V line, 100 nM Alexa Fluor 488-labelled h1F6 IgG1); the sheet says only FcγRIIIA
Method: as §2
(§4) Binding of one of the variants, IgG1 S239C, to CHO cells expressing full-length FcγRIIIa and FcγRI was determined as described above. […] The control, parent antibody h1F6, binds to FcγRIIIa-expressing cells and FcγRI-expressing cells.

[5] = molecular target: T2, human FcγRI, full length on stably …; experiment: cell-based competition binding on CHO cells expressing full-length FcγRI, 'performed as described previously' (50 nM Alexa Fluor 488-labelled h1F6 IgG1)
Method: as §3, §4

[6] = molecular target: T4, human CD70 on CD70 positive cell lines (human, UniProt P32970 1-193); experiment: saturation binding of europium-labelled antibody to CD70+ Caki-1 cells (apparent KD)
T4 construct: whole, on cells
T4 sequence (looked up): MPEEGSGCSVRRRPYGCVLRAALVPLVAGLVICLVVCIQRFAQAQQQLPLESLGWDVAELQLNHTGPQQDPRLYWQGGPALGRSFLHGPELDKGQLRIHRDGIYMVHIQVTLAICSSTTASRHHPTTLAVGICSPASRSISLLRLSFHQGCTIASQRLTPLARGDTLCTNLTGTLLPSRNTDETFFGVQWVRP
Description: (§5) Humanized 1F6 antibody derivatives HDLA (hVHD and hVLA), HHLA (hVHH and hVLA), and HJLA (hVHJ and hVLA), and c1F6 were transiently expressed in 293 cells, labeled with europium using the Eu-N1 iodoacetamido chelate (Perkin Elmer), and analyzed for saturation binding to a panel of CD70 positive cell lines as described in detail in U.S. Patent Application No. 60/673,070, filed Apr. 19, 2005; and PCT International Publication No. WO 2006/113909.

[7] = molecular target: T4, human CD70 on CD70 positive cell lines; experiment: 786-O cell binding, apparent KD of the IgG
[8] = molecular target: T4, human CD70 on CD70 positive cell lines; experiment: saturation binding of europium-labelled antibody to CD70+ Caki-2 cells (apparent KD)
Description: as §5

[9] = molecular target: T4, human CD70 on CD70 positive cell lines; experiment: saturation binding of europium-labelled antibody to CD70+ 786-O cells (apparent KD)
Description: as §5

[10] = molecular target: T4, human CD70 on CD70 positive cell lines; experiment: saturation binding of europium-labelled antibody to CD70+ ACHN cells (apparent KD)
Description: as §5

[11] = molecular target: T4, human CD70 on CD70 positive cell lines; experiment: 786-O cell binding; IC50 of the vcF2 conjugate over IC50 of the unconjugated IgG

T1 sequence (P08637 17-254 F176V): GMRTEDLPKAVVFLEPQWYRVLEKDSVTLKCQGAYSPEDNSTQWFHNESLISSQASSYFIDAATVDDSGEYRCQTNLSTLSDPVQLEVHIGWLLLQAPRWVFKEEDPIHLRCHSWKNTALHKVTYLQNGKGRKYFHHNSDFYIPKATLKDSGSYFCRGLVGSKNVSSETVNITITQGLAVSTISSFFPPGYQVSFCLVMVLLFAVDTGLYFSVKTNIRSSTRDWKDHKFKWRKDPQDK
T2 sequence (P12314 16-374): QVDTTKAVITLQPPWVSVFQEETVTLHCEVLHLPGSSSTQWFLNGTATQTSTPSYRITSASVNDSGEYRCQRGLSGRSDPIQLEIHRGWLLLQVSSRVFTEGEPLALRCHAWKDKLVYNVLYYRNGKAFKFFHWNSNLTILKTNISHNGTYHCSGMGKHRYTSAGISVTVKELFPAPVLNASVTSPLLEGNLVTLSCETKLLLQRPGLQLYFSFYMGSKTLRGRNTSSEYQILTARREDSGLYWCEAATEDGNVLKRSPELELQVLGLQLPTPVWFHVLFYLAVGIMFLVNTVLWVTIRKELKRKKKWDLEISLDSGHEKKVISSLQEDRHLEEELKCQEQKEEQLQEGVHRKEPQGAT

B1: h1F6 IgG1 vcMMAF(4) antibody drug conjugate (antibody)
heavy: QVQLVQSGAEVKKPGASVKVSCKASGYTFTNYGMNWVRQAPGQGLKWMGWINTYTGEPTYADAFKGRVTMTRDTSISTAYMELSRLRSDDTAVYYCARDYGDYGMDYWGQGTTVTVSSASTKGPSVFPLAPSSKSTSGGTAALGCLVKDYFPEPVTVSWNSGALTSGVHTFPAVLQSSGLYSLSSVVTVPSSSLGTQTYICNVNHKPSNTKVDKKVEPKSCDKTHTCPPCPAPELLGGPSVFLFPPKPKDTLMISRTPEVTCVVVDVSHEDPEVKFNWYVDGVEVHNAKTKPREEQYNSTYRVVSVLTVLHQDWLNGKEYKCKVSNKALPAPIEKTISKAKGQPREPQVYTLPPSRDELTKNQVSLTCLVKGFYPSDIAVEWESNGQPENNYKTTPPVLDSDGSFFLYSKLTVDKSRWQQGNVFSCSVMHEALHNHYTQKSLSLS
light: DIVMTQSPDSLAVSLGERATINCRASKSVSTSGYSFMHWYQQKPGQPPKLLIYLASNLESGVPDRFSGSGSGTDFTLTISSLQAEDVAVYYCQHSREVPWTFGQGTKVEIKRTVAAPSVFIFPPSDEQLKSGTASVVCLLNNFYPREAKVQWKVDNALQSGNSQESVTEQDSKDSTYSLSSTLTLSKADYEKHKVYACEVTHQGLSSPVTKSFNRGEC
modifications: vcMMAF conjugated, mean loading of 4 drugs/antibody; attachment residues not stated
notes: also called h1F6 G1-vcMMAF(4); IgG1-F4
binding result [1]: binds | binding result [2]: binds

B2: humanized 1F6 antibody derivative HJLA (hVHJ and hVLA), human IgG1 (antibody)
heavy: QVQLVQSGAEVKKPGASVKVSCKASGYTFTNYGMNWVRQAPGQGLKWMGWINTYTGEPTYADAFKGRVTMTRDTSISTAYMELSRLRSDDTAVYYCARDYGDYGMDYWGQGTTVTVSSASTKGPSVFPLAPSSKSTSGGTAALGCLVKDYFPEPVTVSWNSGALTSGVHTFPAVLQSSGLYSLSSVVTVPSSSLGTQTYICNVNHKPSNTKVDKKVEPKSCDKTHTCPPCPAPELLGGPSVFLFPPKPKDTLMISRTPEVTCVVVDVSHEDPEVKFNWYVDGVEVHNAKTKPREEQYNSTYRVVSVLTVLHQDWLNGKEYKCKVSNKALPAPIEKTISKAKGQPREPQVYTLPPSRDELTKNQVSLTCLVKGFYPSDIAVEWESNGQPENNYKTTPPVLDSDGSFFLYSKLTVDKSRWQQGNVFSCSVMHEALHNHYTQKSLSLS
light: DIVMTQSPDSLAVSLGERATINCRASKSVSTSGYSFMHWYQQKPGQPPKLLIYLASNLESGVPDRFSGSGSGTDFTLTISSLQAEDVAVYYCQHSREVPWTFGQGTKVEIKRTVAAPSVFIFPPSDEQLKSGTASVVCLLNNFYPREAKVQWKVDNALQSGNSQESVTEQDSKDSTYSLSSTLTLSKADYEKHKVYACEVTHQGLSSPVTKSFNRGEC
notes: also called h1F6 HJLA; h1F6 IgG1
binding result [3]: no binding | IC50 (read off the curve) [4]: ~200 nM | IC50 (read off the curve) [5]: ~6 nM | Kd [6]: 1.36 nM | Kd [7]: 0.6 nM | Kd [8]: 0.37 nM | Kd [9]: 0.46 nM | Kd [10]: 0.68 nM

B5: h1F6 IgG1 S239C conjugated to vcMMAF (average of 2 drugs/antibody) (antibody)
heavy: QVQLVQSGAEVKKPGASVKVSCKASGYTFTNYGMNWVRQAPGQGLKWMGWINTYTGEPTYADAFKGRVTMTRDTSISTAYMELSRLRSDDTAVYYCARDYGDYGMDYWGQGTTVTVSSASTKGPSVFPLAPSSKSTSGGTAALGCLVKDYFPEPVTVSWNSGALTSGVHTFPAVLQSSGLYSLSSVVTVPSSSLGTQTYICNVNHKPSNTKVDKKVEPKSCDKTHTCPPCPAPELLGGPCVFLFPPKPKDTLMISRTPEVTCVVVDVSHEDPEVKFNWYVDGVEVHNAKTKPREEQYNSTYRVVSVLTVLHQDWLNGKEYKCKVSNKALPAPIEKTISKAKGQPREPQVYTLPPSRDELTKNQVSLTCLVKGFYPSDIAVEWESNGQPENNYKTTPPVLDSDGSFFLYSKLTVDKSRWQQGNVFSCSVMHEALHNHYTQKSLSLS
light: DIVMTQSPDSLAVSLGERATINCRASKSVSTSGYSFMHWYQQKPGQPPKLLIYLASNLESGVPDRFSGSGSGTDFTLTISSLQAEDVAVYYCQHSREVPWTFGQGTKVEIKRTVAAPSVFIFPPSDEQLKSGTASVVCLLNNFYPREAKVQWKVDNALQSGNSQESVTEQDSKDSTYSLSSTLTLSKADYEKHKVYACEVTHQGLSSPVTKSFNRGEC
modifications: vcMMAF conjugated, average of 2 drugs/antibody; attachment residues not stated for the material tested
notes: also called IgG1 S239C vcMMAF; IgG1 S239C IgG-vcF2
IC50 IgG-vcF2 / IC50 IgG [11]: 1.1 ratio | binding result [4]: binds | IC50 (read off the curve) [5]: ~8 nM

Next, values leading:

IC50 (read off the curve) [2]: ~10 nM
B3: h1F6 IgG4 vcMMAF(4) antibody drug conjugate (antibody)
heavy: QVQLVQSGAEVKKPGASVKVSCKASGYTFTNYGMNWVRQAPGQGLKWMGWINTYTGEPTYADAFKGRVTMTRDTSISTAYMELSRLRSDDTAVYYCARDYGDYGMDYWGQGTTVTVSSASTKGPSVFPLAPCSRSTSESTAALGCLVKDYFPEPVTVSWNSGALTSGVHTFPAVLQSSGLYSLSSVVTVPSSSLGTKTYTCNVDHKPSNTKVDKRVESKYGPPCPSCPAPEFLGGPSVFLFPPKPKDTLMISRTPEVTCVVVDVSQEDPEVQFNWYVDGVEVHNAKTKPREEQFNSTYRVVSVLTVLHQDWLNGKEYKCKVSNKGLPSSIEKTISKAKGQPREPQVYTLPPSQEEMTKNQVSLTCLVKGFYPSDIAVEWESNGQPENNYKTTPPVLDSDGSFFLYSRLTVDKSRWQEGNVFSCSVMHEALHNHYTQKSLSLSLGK
light: DIVMTQSPDSLAVSLGERATINCRASKSVSTSGYSFMHWYQQKPGQPPKLLIYLASNLESGVPDRFSGSGSGTDFTLTISSLQAEDVAVYYCQHSREVPWTFGQGTKVEIKRTVAAPSVFIFPPSDEQLKSGTASVVCLLNNFYPREAKVQWKVDNALQSGNSQESVTEQDSKDSTYSLSSTLTLSKADYEKHKVYACEVTHQGLSSPVTKSFNRGEC
modifications: vcMMAF conjugated, mean loading of 4 drugs/antibody; attachment residues not stated
notes: also called h1F6 G4-vcMMAF(4); IgG4-F4

binding result [4]: binds | IC50 (read off the curve) [5]: ~10 nM | Kd [7]: 1 nM
B4: h1F6 IgG1 S239C (antibody)
heavy: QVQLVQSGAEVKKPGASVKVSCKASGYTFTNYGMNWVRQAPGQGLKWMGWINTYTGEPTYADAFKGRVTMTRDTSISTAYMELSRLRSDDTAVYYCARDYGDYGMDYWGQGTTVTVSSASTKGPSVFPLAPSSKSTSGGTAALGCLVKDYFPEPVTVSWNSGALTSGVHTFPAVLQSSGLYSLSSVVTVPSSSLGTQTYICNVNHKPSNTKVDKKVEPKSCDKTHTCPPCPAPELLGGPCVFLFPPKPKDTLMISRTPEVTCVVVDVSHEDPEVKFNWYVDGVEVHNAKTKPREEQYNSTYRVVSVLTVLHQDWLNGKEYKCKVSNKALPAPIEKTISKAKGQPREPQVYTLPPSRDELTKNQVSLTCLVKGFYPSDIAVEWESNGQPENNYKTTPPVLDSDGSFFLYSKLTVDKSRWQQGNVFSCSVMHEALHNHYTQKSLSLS
light: DIVMTQSPDSLAVSLGERATINCRASKSVSTSGYSFMHWYQQKPGQPPKLLIYLASNLESGVPDRFSGSGSGTDFTLTISSLQAEDVAVYYCQHSREVPWTFGQGTKVEIKRTVAAPSVFIFPPSDEQLKSGTASVVCLLNNFYPREAKVQWKVDNALQSGNSQESVTEQDSKDSTYSLSSTLTLSKADYEKHKVYACEVTHQGLSSPVTKSFNRGEC

Reference: US20240084031A1 (Seagen, published 2024)
